Test results taken from the supplement of paper PMC9732359.
± gives the uncertainty stated by the source.

Assay: protein stability index of a GFP-peptide fusion (yeast GPS) (PSI 1-4); higher = more stable; sorted into four equal gates, so the index is relative within each strain
Method in brief: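 For each peptide, the protein stability index sums the read frequency in every gate after multiplying it by the gate number. Read frequencies came from plasmids that were PCR-amplified from each gate and Illumina-sequenced, with reads assigned to strains by barcodes. The gates were four equal bins of GFP/Cherry fluorescence ratio applied to mid-log yeast in leucine-free medium carrying a pooled library of tiled 17-residue yeast protein peptides fused downstream of GFP on a Cherry-expressing plasmid.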

Sequence	protein stability index (doa10∆)	protein stability index (pdr5∆)	protein stability index (san1∆)	protein stability index (ubr1∆)
LAGMDVEDALDKDSTKE [FAS2]	3.43 ± 0.27	3.72 ± 0.19	–	–
LAIDNMYILGMCVSKGN [YCG1]	2.19 ± 0.069	2.02 ± 0.061	2.27 ± 0.089	2.42 ± 0.057
LAKYRDAGKIDKHLYHV [RPL19A]	3.3 ± 0.18	3.39 ± 0.15	1.27 ± 0.28	3.61 ± 0.095
LALENGEITKTENEKFI [NUT1]	3.28 ± 0.15	3.45 ± 0.11	3.44 ± 0.066	3.3 ± 0.14
LALMTAHSLSPKDYIKK [CDC53]	3.1 ± 0.06	3.03 ± 0.059	3.25 ± 0.04	3.15 ± 0.052
LAMEAILNELEVFIGRV [YJR042W/NUP85]	2.59 ± 0.12	2.93 ± 0.14	2.76 ± 0.15	2.51 ± 0.06
LANWFLEVYASGNPNAT [YML031W/NDC1]	2.03 ± 0.055	2.17 ± 0.046	2.37 ± 0.075	1.69 ± 0.045
LAQTLKLWRKIARLYSC [RRI2]	1.2 ± 0.07	1.21 ± 0.058	1.34 ± 0.096	1.26 ± 0.053
LARACAAQTNATFLKLA [RPT5]	2.76 ± 0.13	2.93 ± 0.089	2.93 ± 0.099	2.6 ± 0.27
LASEVGDPALVYKFMSL [ECM29]	2.32 ± 0.069	2.4 ± 0.067	2.34 ± 0.093	2.05 ± 0.034
LATYCPRVQGFYVPQAR [GRR1]	2.44 ± 0.078	2.4 ± 0.069	2.03 ± 0.09	3 ± 0.049
LAVLALVIVKKGEQELE [RPS6A]	1.61 ± 0.038	1.56 ± 0.045	2 ± 0.072	2.54 ± 0.05
LAYRNYWTQYLGLFIHK [YJL039C/NUP192]	1.94 ± 0.057	1.56 ± 0.037	1.9 ± 0.055	2.02 ± 0.039
LCKTKMVCETDVPSEDD [RPO21]	2.99 ± 0.071	3 ± 0.093	3.25 ± 0.074	2.52 ± 0.067
LDALTRHIKSKHEDLSL [RPN4]	2.54 ± 0.062	2.08 ± 0.068	1.57 ± 0.089	2.61 ± 0.059
LDDPEAVSKDPLLTKRK [DIS3]	2.9 ± 0.11	3.44 ± 0.1	3.34 ± 0.094	3.1 ± 0.059
LDDTTIPVGLMAQENSM [MCD1]	1.5 ± 0.071	1.84 ± 0.093	1.56 ± 0.17	1.87 ± 0.078
LDIGLQRTTTGARVFGA [RPL5]	1.35 ± 0.073	1.29 ± 0.096	1.31 ± 0.13	1.12 ± 0.071
LDIKRVGSENVECTISI [SNF12]	2.27 ± 0.067	2.78 ± 0.066	2.56 ± 0.056	2.81 ± 0.065
LDKDSSQSSAAAGASVD [RPN6]	3.47 ± 0.11	3.42 ± 0.078	3.02 ± 0.075	3.2 ± 0.086
LDNSKMDYHFIFSYLQF [RGR1]	2.45 ± 0.061	1.72 ± 0.056	1.89 ± 0.047	1.8 ± 0.065
LDSLMKTTRLLLIIRSL [YJL039C/NUP192]	1.63 ± 0.044	1.39 ± 0.039	1.32 ± 0.077	1.27 ± 0.04
LDSNNNNSNSNNNDNNN [SWI1]	2.65 ± 0.035	2.74 ± 0.039	2.79 ± 0.028	2.71 ± 0.029
LDTYRERSKQLNEKFQE [SMC2]	–	–	3.37 ± 0.12	–
LEACIVRIMKAKRNLPH [CDC53]	1.5 ± 0.087	1.61 ± 0.059	1.3 ± 0.13	1.21 ± 0.045
LEAKRKVSSAEYYAKKR [RPL16A]	3.06 ± 0.14	3.3 ± 0.11	2.86 ± 0.11	3.35 ± 0.09
LEALRQNYRLDGRSFDQ [RRP45]	2.43 ± 0.11	1.97 ± 0.12	1.61 ± 0.14	2.81 ± 0.086
